Measurements published in the supplement of paper PMC12042874.
± gives the uncertainty stated by the source.

Test: amyloid nucleation score (Sup35N fusion, yeast selection) (log enrichment); library NNK1; higher = more nucleation; inactive = no reads after selection
Procedure, shortened: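 Random libraries were run with three technical output replicates. In each, psi-negative yeast expressing Sup35N fused to peptides of 20 random codons were induced 24 hours with 100 μM copper sulfate and grown 7 days at 30°C on medium lacking adenine and uracil, and input and output plasmid inserts were Illumina-sequenced. The nucleation score is the DiMSum log enrichment of output over input reads, centred on the mode score of non-aggregating sequences, and sequences under 100 input reads were excluded.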

| Substance | amyloid nucleation score |
| --- | --- |
| TNYWPVIFG | 0.116 ± 0.36 |
| NGCLFILFCILLFKAQPSIA | 0.057 ± 0.78 |
| GCVLFDLSHL | -1.92 ± 2.4 |
| ILSEPNELTGACLAS | 0.29 ± 0.78 |
| LCDDHRPELCVYIVWTVVGE | 3.19 ± 0.22 |
| FLAIILSWPFSAQFGFNVEG | 0.533 ± 0.62 |
| WELARVDCNWFSHFWHAYMR | inactive |
| HFNFNFAQSRNEMLVASG | -1.16 ± 1.6 |
| DTAWNLVQSVS | 0.496 ± 0.7 |
| ARHKSENWNYAVDLLSLILS | 1.59 ± 0.41 |
| FAWLGCFSWTLNFWDKYMRG | -0.856 ± 1.4 |
| PYSAQAFERRSHAIRGVSKN | -0.438 ± 0.44 |
| RVRLTFCCLMAVRSRSMISK | 0.436 ± 1.2 |
| IIMVYSRSLLMLKLSLVVPC | inactive |
| DKAFLWQFEELVAA | -0.331 ± 0.72 |
| LTHYEFGTFFYKVWSNDRHK | 3.35 ± 0.062 |
| VFKSVFY | 1.99 ± 0.32 |
| YAMNPHTDGPCTFNWVFYGK | 8.094 ± 0.056 |
| YRWLLNRKTSSMSVFCNSLF | inactive |
| LRHMLIAAFSDWVKYWGCAR | 0.194 ± 0.51 |
| GKSNLARHAPNLEVTMRGTE | 1.27 ± 0.42 |
| VGSLFYKVRPGNNSFVTHIH | 1.08 ± 0.88 |
| VFYLCSLLCLIVKRLGQGDC | 0.484 ± 0.57 |
| HSDCRFRKLGRTHTSMRVCC | 0.096 ± 0.49 |
| RLQSKLLHCS | -0.169 ± 0.45 |

| Substance | amyloid nucleation score |
| --- | --- |
| KSYNWDYGHLRVNYGGHMMI | -0.544 ± 1.4 |
| SIHVVYNPTFQMNCYTFRLS | 7.888 ± 0.05 |
| FVAISVSTIRQCGVCRGGTC | 4.29 ± 0.12 |
| MYEMTG | -0.388 ± 0.19 |
| LLVVVTLAI | 0.89 ± 0.51 |
| PFNFIPFAYRLYRKTYRTSH | 0.165 ± 0.46 |
| GRPLCSRPMILHMHNITLRM | 1.05 ± 0.97 |
| KAYRV | -0.633 ± 0.39 |
| VRHSAIRGLHWSGRILRCGV | 1.01 ± 1.1 |
| AFGAVFRGEKR | 0.241 ± 1.4 |
| VFFNLIKRWEVVREDTM | -0.426 ± 0.35 |
| SLTDAEGSWLHRSWVKWNRC | -0.208 ± 0.62 |
| DCHVRCLRQV | 0.611 ± 0.35 |
| ARPFRRCYSKADAWGVQQVG | 0.556 ± 0.79 |
| VLCRINGVRS | 1.1 ± 0.97 |
| TIDKNNMESFITGFFGVRIL | 1.3 ± 0.4 |
| LSRDHCKNLNLNP | -0.084 ± 1.1 |
| WKCWGLCHLQR | -1 ± 0.93 |
| HVLLYCANFVIYTDVA | 2.45 ± 0.26 |
| IVYSLLYVRMSSNSMWVSV | 0.958 ± 0.9 |
| LLMYLLHSCYNVMHCLCLNF | 0.128 ± 0.21 |
| DGGICYD | 0.733 ± 0.31 |
| RYMSHGIGGTPV | 0.142 ± 0.69 |
| AFPRARGYMG | -0.575 ± 0.37 |
| STDMYVPVPDTDWIICLRQL | -0.23 ± 0.56 |

| Substance | amyloid nucleation score |
| --- | --- |
| SLKDVPISCFNYMHC | 4.39 ± 0.094 |
| MYAFASSKYEHIS | 0.53 ± 0.32 |
| MAPLTMTSDLSHISKTGIWG | 1.38 ± 0.9 |
| IGILMVACRLHNVSLYLCSG | -0.514 ± 0.96 |
| CVSHFIHCDWLGQRL | 0.135 ± 0.26 |
| VIFDNGRLIEHCYERLTRPW | -0.327 ± 0.61 |
| ELVSS | -0.455 ± 0.26 |
| NLTVCVQCNAAYCNYLSHRD | 7.517 ± 0.071 |
| VIMQFFILCPHSVCISSENH | 7.497 ± 0.049 |
| VRLMQIWGV | -0.5 ± 2.1 |
| FVGRSVCAKMTPHRLTAIGP | -0.082 ± 0.67 |
| FFISALLNSSFGEFTFGSVK | -0.432 ± 0.65 |
| RCMGGGFRRRVNMYETPGIR | -0.387 ± 0.79 |
| LVNDPVFMGTWILSARICNV | 0.323 ± 0.36 |
| YLLYEVSVLNYRPL | -0.285 ± 0.32 |
| VWVLPRDNVFSIKNYMSFS | 6.965 ± 0.045 |
| FGHGV | -0.626 ± 1.6 |
| DNTSCLW | inactive |
| SLNSTFFCIEISVDDIEVLQ | -0.609 ± 0.52 |
| RWRKVGIKEGLIMLESGVSR | -0.921 ± 2.4 |
| NKFYCVI | -0.927 ± 1.4 |
| LSTGWESNLEGCCENWGGLK | -0.499 ± 0.29 |
| SILETLGLAFVK | -0.41 ± 0.57 |
| GTWLSMLDSSV | -0.32 ± 0.79 |
| VYMRNKEQVNIGHDTVNLSL | 0.58 ± 0.43 |

| Substance | amyloid nucleation score |
| --- | --- |
| SLVTDCYVPGFLYAMVIHAG | 1.01 ± 0.45 |
| ACEELVQIVVYCDSFMFSPS | 1.46 ± 0.52 |
| LICAAAKLIHGWGNKWIYVT | -0.368 ± 1.7 |
| NVCPFWGYKDAW | 0.435 ± 0.22 |
| GLSQKVGKPAAALLRTMVSD | -0.309 ± 0.27 |
| NMLAQSRSSVIAPLRRVWPV | 0.889 ± 0.77 |
| SCETVWYVFNSAIACFTFRR | 4.18 ± 0.15 |
| LYMVWCACSFWDYITVFIFM | 0.041 ± 0.65 |
| VQNTWVILRKL | 4.43 ± 0.095 |
| RCVFNRIKDFSVRDRWSFSG | 1.03 ± 0.73 |
| HPFYIFAVYIFPYHCLSCSL | 0.331 ± 0.33 |
| MATSPFGERVPFIYLDHFCY | 0.009 ± 0.42 |
| SGHNLWRRGQKWSL | -0.455 ± 0.58 |
| NGTGLFNNLWVGSLRLRVTR | 0.192 ± 0.56 |
| NGFRSVQVLGKGAVMCVNCR | inactive |
| EMNVSILKHAYSQALSFARW | -0.068 ± 0.45 |
| IFCSNECVSTVDADTPGLSL | 9.289 ± 0.044 |
| FELICRW | 0.516 ± 1.1 |
| WSHSILCIQSRSRIYPTHWL | 0.495 ± 0.29 |
| HSFFMFP | -0.39 ± 0.73 |
| IALRL | 0.91 ± 0.4 |
| LDRFCYLVYRRRCGYSRWQM | 0.527 ± 0.39 |
| WISYVQNTIYRFAFEESCLG | 1.31 ± 0.43 |
| NVIYFNVLVAPLHIPMLDLG | 3.75 ± 0.14 |
| YRNGCTFGWWRWRR | 1.08 ± 0.28 |

| Substance | amyloid nucleation score |
| --- | --- |
| VLYLMAAPIVMVYV | 4.31 ± 0.061 |
| AFIARVTRFGVTRDPLIRQ | inactive |
| DMCLWARG | 0.732 ± 1 |
| GVTYKPYGVSNW | -0.616 ± 0.69 |
| WIRHSNNICMM | 1.26 ± 0.18 |
| MHYGTLSIVV | 0.302 ± 0.3 |
| YWILQV | 0.299 ± 0.73 |
| LQKRANNRRC | -0.372 ± 0.5 |
| TRMGEL | -0.089 ± 0.76 |
| ATYYFICMLIVQVHFCLFTM | -0.992 ± 0.5 |
| AFRCCMFAFVFCSSGDSRAE | 7.392 ± 0.056 |
| YMGELFTE | 2.45 ± 0.15 |
| QRCYCGSCDWLRAMFVCWGL | inactive |
| DSSLEVRRNRTSRLYAHFT | -0.218 ± 0.39 |
| MQTLNCSPNQAHSSIFN | 0.915 ± 0.97 |
| GTFSDAFVLLIFCLYGINYL | 1.54 ± 0.53 |
| EALLWTEGMWHSSGGLYSNV | 0.261 ± 0.27 |
| KAPKYRDRRVGVNVKYWYMP | 0.058 ± 0.66 |
| DPGVNALVLLILKTWDRDYE | -0.638 ± 0.69 |
| LVLVRFITPVDLAVMNGRLW | -0.927 ± 0.34 |
| LVELLVWMAGWRCGDFLACR | 0.867 ± 0.58 |
| NLTRITF | -0.762 ± 1.1 |
| SDVYRGVVIVGHMIAKHMLV | 0.494 ± 0.55 |
| KTFTNGLCDPDVYGTIWAM | 0.488 ± 0.36 |
| SVPDVVSYTKDTVVFNFGFT | 3.31 ± 0.083 |

| Substance | amyloid nucleation score |
| --- | --- |
| RFKCDVTTVDW | 0.108 ± 0.24 |
| MYYLRHF | inactive |
| MWLQHYWTHQAY | 0.59 ± 0.88 |
| CYSWHGVYRGYVYSSYNNYV | 0.77 ± 0.52 |
| HSGYTYDRRYPCNYDFSIQV | inactive |
| DYPPIRALVSFDCCAVSTCL | 0.922 ± 0.93 |
| WSYGSEPM | inactive |
| VSILSRI | -0.842 ± 0.61 |
| VSASLDGPLSVRKGTSKAWD | -0.043 ± 1.4 |
| LSRPTYSRMHIWISCHLIVV | -0.707 ± 1.7 |
| VRTFWCYCTWPASRYR | -0.001 ± 0.51 |
| ADPLMI | -0.163 ± 0.28 |
| ELASSLIVFVDFSRACELNL | 4.95 ± 0.12 |
| ADNRVQRYTDPFLGSVSMYK | 0.563 ± 0.49 |
| FFFKAFDLATTSLGRYNMCN | -0.66 ± 0.52 |
| LLALYCNDPKLEDSTLREFN | 1.15 ± 0.71 |
| SGKVVNPCMNDSDLVLNRIW | -0.011 ± 0.23 |
| IYIMKHASSSMNGVSVQDFM | 0.695 ± 0.67 |
| NIKANQLKGTWKRRTMYRWS | -0.271 ± 0.97 |
| VLRHS | -0.779 ± 1 |
| DHHQGMM | -0.213 ± 1.2 |
| GKIYWLLLQTDKDRRFLTMR | -0.744 ± 0.46 |
| AVLHLSDCERNYFTFTVNCG | 6.207 ± 0.049 |
| KACDRFNLTYKTVSVRMGDC | 0.39 ± 0.28 |
| LCSLVFTIRRTPPWVQSMLR | 0.096 ± 0.8 |

| Substance | amyloid nucleation score |
| --- | --- |
| MLVPRSRIRIPACRFQHRLP | -0.064 ± 0.35 |
| TWQAWVGCWQYQRMGTEL | 0.256 ± 0.58 |
| QTRRVVHSGN | 0.284 ± 0.81 |
| LTRKTVRKTSKNRIGLHHQT | inactive |
| YCSSVEVGVYLNVLICFSGL | 3.18 ± 0.062 |
| CYLACLLQTHYND | -1.18 ± 2.7 |
| TAWSSHPEV | -1.16 ± 2.4 |
| ISNMETGHLEYSLRLAPKYC | -0.658 ± 0.82 |
| YDRNRSMPSLLRP | inactive |
| CFFYDCGWTCPLKNIGSYTF | 0.07 ± 0.51 |
| NGSLLWYVCSSWNVMHDGSV | -1 ± 1.3 |
| LILRVSFN | 2.28 ± 0.16 |
| NLDVYFLVRWLLSCRCACRS | 0.87 ± 0.62 |
| PSSGLFASLIVMSTVRTDLI | -0.307 ± 0.38 |
| SMGQHHMGGWVYGRKAEKLS | -0.185 ± 0.37 |
| NRYGWHSPDVPLAHIS | -0.029 ± 0.87 |
| LTHWTQHMF | -0.37 ± 0.87 |
| YCGMCVYLISYMATFNCYYY | 3.54 ± 0.1 |
| SFCSFEF | 0.858 ± 0.88 |
| SARYTLKPQPWVHHLLK | 0.523 ± 0.9 |
| QAVRDVRLCN | -0.073 ± 0.61 |
| IKILLNWHV | -0.628 ± 1.7 |
| MMGWV | -0.619 ± 0.48 |
| VREYMTFQDMYLSGVSTVTL | 1.08 ± 0.61 |
